# Laboratory results reported in the Human Domainome abundance scans (Beltran et al. 2025).
# ± gives the uncertainty stated by the source.
# B1: Double-stranded RNA-binding protein Staufen homolog 1, residues 183 to 249; numbered along this chain, O95793 (parent)
# chain: KSEISQVFEIALKRNLPVNFEVARESGPPHMKNFVTKVSVGEFVGEGEGKSKKISKKNAAIAVLEEL
# Variants of: B1
# Assay: abundance fitness (aPCA) (normalised: wild type 0, dead -1); higher = more abundant; growth selection in yeast, the domain comes from the species named
# Conditions: Homo sapiens
row,Variant,abundance fitness
1,V22Q,-0.031 ± 0.056
2,V22E,-0.033 ± 0.054
3,V22R,0.069 ± 0.038
4,A60M,-0.363 ± 0.058
5,A60V,-0.489 ± 0.044
6,A60P,-0.701 ± 0.064
7,A60D,-0.649 ± 0.089
8,A60L,-0.414 ± 0.039
9,A60H,-0.803 ± 0.083
10,E65T,-0.082 ± 0.044
11,E65R,0.093 ± 0.036
12,E65L,-0.417 ± 0.044
13,E65S,0.003 ± 0.048
14,E65C,-0.348 ± 0.079
15,P29I,-0.205 ± 0.081
16,P29H,-0.105 ± 0.1
17,P29R,-0.08 ± 0.032
18,P29V,-0.205 ± 0.045
19,A11G,0.035 ± 0.039
20,A11F,-1.13 ± 0.24
21,A11Q,-0.732 ± 0.098
22,A11C,-0.825 ± 0.11
23,A11D,-0.679 ± 0.08
24,L16P,-0.663 ± 0.1

row,Variant,abundance fitness
1,L16K,-0.432 ± 0.074
2,L16I,-0.196 ± 0.11
3,L16R,-0.587 ± 0.047
4,N33D,-0.376 ± 0.076
5,N33A,-0.219 ± 0.05
6,N33E,-0.269 ± 0.059
7,N33V,-0.115 ± 0.047
8,N33K,-0.011 ± 0.055
9,N33Y,-0.255 ± 0.13
10,N33S,-0.016 ± 0.053
11,E46Q,0.051 ± 0.079
12,E46F,0.076 ± 0.14
13,E46M,0.028 ± 0.088
14,E46S,-0.051 ± 0.069
15,E46A,-0.151 ± 0.055
16,P28N,-0.152 ± 0.091
17,P28H,-0.123 ± 0.091
18,P28S,-0.089 ± 0.045
19,P28E,-0.153 ± 0.062
20,P28C,-0.157 ± 0.069
21,E48H,-0.061 ± 0.11
22,E48P,-0.808 ± 0.07
23,E48V,0.048 ± 0.047
24,E48F,-0.01 ± 0.098

row,Variant,abundance fitness
1,E48S,0.007 ± 0.044
2,E48C,0.064 ± 0.062
3,E48T,0.037 ± 0.058
4,E48M,-0.013 ± 0.057
5,N15D,-0.156 ± 0.076
6,N15I,-0.629 ± 0.17
7,N15R,-0.155 ± 0.044
8,N15S,-0.146 ± 0.061
9,N15T,-0.431 ± 0.087
10,N19W,-0.246 ± 0.062
11,N19G,-0.323 ± 0.053
12,N19I,-0.15 ± 0.075
13,N19S,0.006 ± 0.051
14,N19D,-0.229 ± 0.099
15,N19L,-0.069 ± 0.041
16,N19T,0.037 ± 0.052
17,N19A,-0.047 ± 0.051
18,R24N,-0.207 ± 0.069
19,R24W,-0.256 ± 0.038
20,R24D,-0.141 ± 0.081
21,F43P,-0.649 ± 0.087
22,F43N,-0.437 ± 0.13
23,S26F,-0.348 ± 0.29
24,S26P,-0.27 ± 0.45

row,Variant,abundance fitness
1,F8C,-0.258 ± 0.066
2,F8D,-0.408 ± 0.066
3,F8L,-0.112 ± 0.039
4,F8M,-0.143 ± 0.058
5,F8E,-0.268 ± 0.048
6,F8Y,0.129 ± 0.062
7,F8S,-0.394 ± 0.039
8,L67E,-0.743 ± 0.11
9,L67I,-0.114 ± 0.14
10,L67D,-0.706 ± 0.35
11,L67R,-0.751 ± 0.074
12,L67T,-0.6 ± 0.077
13,L67P,-0.526 ± 0.094
14,S51M,-0.587 ± 0.095
15,S51V,-0.615 ± 0.071
16,S51P,-0.449 ± 0.074
17,A23M,0.06 ± 0.058
18,A23W,-0.141 ± 0.042
19,I4S,-0.461 ± 0.056
20,I4K,-0.516 ± 0.062
21,I4R,-0.7 ± 0.042
22,I4T,-0.391 ± 0.062
23,K37L,-0.311 ± 0.077
24,K37Q,-0.25 ± 0.15

row,Variant,abundance fitness
1,G47V,-0.834 ± 0.057
2,G47M,-0.874 ± 0.07
3,G47E,-0.773 ± 0.063
4,G47S,-0.667 ± 0.048
5,G47Y,-0.945 ± 0.1
6,G47R,-0.627 ± 0.041
7,P17Y,-0.288 ± 0.15
8,P17G,-0.24 ± 0.054
9,P17N,-0.112 ± 0.096
10,P17A,-0.09 ± 0.051
11,P17I,-0.323 ± 0.11
12,P17C,-0.447 ± 0.18
13,R14H,-0.155 ± 0.084
14,R14F,-0.232 ± 0.15
15,R14G,-0.361 ± 0.047
16,V44R,-0.051 ± 0.035
17,V44S,-0.086 ± 0.044
18,V44E,-0.132 ± 0.058
19,S5F,-0.512 ± 0.2
20,G49H,-0.53 ± 0.15
21,G49N,-0.748 ± 0.11
22,G49A,-0.485 ± 0.043
23,V38T,-0.481 ± 0.069
24,V38Q,-0.704 ± 0.063

row,Variant,abundance fitness
1,V38R,-0.654 ± 0.047
2,V38F,-0.352 ± 0.12
3,V38M,-0.231 ± 0.06
4,V38K,-0.511 ± 0.071
5,N58P,-0.763 ± 0.055
6,N58W,-0.868 ± 0.087
7,N58C,-0.451 ± 0.072
8,N58V,-0.565 ± 0.055
9,N58H,-0.284 ± 0.075
10,N58G,-0.655 ± 0.054
11,F20R,-0.569 ± 0.046
12,F20Q,-0.657 ± 0.065
13,F20P,-0.654 ± 0.062
14,F20T,-0.395 ± 0.059
15,F20H,-0.699 ± 0.096
16,F20W,0.036 ± 0.061
17,V7E,-0.486 ± 0.06
18,V7M,-0.295 ± 0.056
19,V7R,-0.631 ± 0.039
20,V7P,-0.68 ± 0.066
21,V7S,-0.656 ± 0.052
22,V7C,-0.607 ± 0.077
23,V7K,-0.586 ± 0.059
24,K1I,-0.201 ± 0.092

row,Variant,abundance fitness
1,K1A,-0.436 ± 0.11
2,K1C,-0.177 ± 0.1
3,K1V,-0.335 ± 0.054
4,G27K,-0.207 ± 0.052
5,G27N,-0.307 ± 0.081
6,G27C,-0.366 ± 0.076
7,K53P,-0.284 ± 0.07
8,K53T,-0.311 ± 0.057
9,K53C,-0.284 ± 0.055
10,K53F,-0.175 ± 0.075
11,K53H,-0.263 ± 0.077
12,K53V,-0.22 ± 0.042
13,E21W,-0.009 ± 0.053
14,E21C,-0.114 ± 0.051
15,E21H,-0.072 ± 0.068
16,E21F,-0.055 ± 0.084
17,E21D,-0.105 ± 0.098
18,E21V,-0.023 ± 0.043
19,E66Y,0.063 ± 0.069
20,E66M,0.111 ± 0.067
21,G45V,-0.345 ± 0.044
22,G45D,-0.645 ± 0.076
23,G45F,-0.373 ± 0.075
